Results taken from patent US9072737B2, “tPA mutant in the treatment of acute brain injury and neurodegenerative disorders” (HADASIT MEDICAL RESEARCH SERVICES & DEVELOPMENT LTD., priority 2008, dated 2015).
Entries after “also recorded” stand apart in the source; their conditions may differ.

B1: tPA-S481A: Recombinant human tPA with Ser481 to Ala point mutation, catalytically inactive, two extra N-terminal residues RS, SEQ ID NO. 1 (protein, listed as Homo sapiens)
chain: RSGARSYQVICRDEKTQMIYQQHQSWLRPVLRSNRVEYCWCNSGRAQCHSVPVKSCSEPRCFNGGTCQQALYFSDFVCQCPEGFAGKCCEIDTRATCYEDQGISYRGTWSTAESGAECTNWNSSALAQKPYSGRRPDAIRLGLGNHNYCRNPDRDSKPWCYVFKAGKYSSEFCSTPACSEGNSDCYFGNGSAYRGTHSLTESGASCLPWNSMILIGKVYTAQNPSAQALGLGKHNYCRNPDGDAKPWCHVLKNRRLTWEYCDVPSCSTCGLRQYSQPQFRIKGGLFADIASHPWQAAIFAKHRRSPGERFLCGGILISSCWILSAAHCFQERFPPHHLTVILGRTYRVVPGEEEQKFEVEKYIVHKEFDDDTYDNDIALLQLKSDSSRCAQESSVVRTVCLPPADLQLPDWTECELSGYGKHEALSPFYSERLKEAHVRLYPSSRCTSQHLLNRTVTDNMLCAGDTRSGGPQANLHDACQGDAGGPLVCLNDGRMTLVGIISWGLGCGQKDVPGVYTKVTNYLDWIRDNMRP
B2: WT tPA: Recombinant wild type human tissue plasminogen activator expressed in S2 Drosophila system, SEQ ID NO. 2 (protein, listed as Homo sapiens)
chain: GARSYQVICRDEKTQMIYQQHQSWLRPVLRSNRVEYCWCNSGRAQCHSVPVKSCSEPRCFNGGTCQQALYFSDFVCQCPEGFAGKCCEIDTRATCYEDQGISYRGTWSTAESGAECTNWNSSALAQKPYSGRRPDAIRLGLGNHNYCRNPDRDSKPWCYVFKAGKYSSEFCSTPACSEGNSDCYFGNGSAYRGTHSLTESGASCLPWNSMILIGKVYTAQNPSAQALGLGKHNYCRNPDGDAKPWCHVLKNRRLTWEYCDVPSCSTCGLRQYSQPQFRIKGGLFADIASHPWQAAIFAKHRRSPGERFLCGGILISSCWILSAAHCFQERFPPHHLTVILGRTYRVVPGEEEQKFEVEKYIVHKEFDDDTYDNDIALLQLKSDSSRCAQESSVVRTVCLPPADLQLPDWTECELSGYGKHEALSPFYSERLKEAHVRLYPSSRCTSQHLLNRTVTDNMLCAGDTRSGGPQANLHDACQGDSGGPLVCLNDGRMTLVGIISWGLGCGQKDVPGVYTKVTNYLDWIRDNMRP

Tests used:
[1] = system: plasminogen; experiment: PA catalytic activity of tPA mutant; assay type: biochemical; settings: data not shown
Source text: Tissue type plasminogen activator (tPA) a multidomain, glycosylated, serine protease is a fibrin specific activator of plasminogen and a very effective thrombolytic agent. It should be appreciated that “mutated tPA” or “mtPA” as used herein includes a mutated native tPA and recombinant mutated tPA, as well as modified forms of tPA that is devoid of the enzymatic activities of native tPA. More specifically, as used herein in the specification and in the claims section below, the term “devoid of protease or serine protease catalytic activity” and its derivatives refers to a mutated tPA molecule having impaired, decreased or reduced expression of activity. A preferred mutated tPA molecule lacks any catalytic activity. According to one embodiment of the present invention at least about 10-100%, more specifically, about 10%, 15%, 20%, 25%, 30%, 35%, 40%, 45%, 50%, 55%, 60%, 65%, 70%, 75%, 80%, 85%, 90%, 95%, 99% and even 100% of the tPA activity is abolished by the point mutation performed by the invention, as compared to the WT (wild type) tPA activity. It should be noted that the enzymatic activity of tPA can be measured by assessing the ability of the molecule to convert plasminogen to plasmin.

[2] = system: CHI mice; experiment: Neurological severity score (NSS) in closed head injury (CHI) model; assay type: in vivo; settings: for NSS at day 20 following CHI: FIG. 2, 100 μg/mice i.p. two hours after CHI, compared with saline control
Source text: Briefly, after induction of ether anesthesia, a midline longitudinal incision was made, the skin was retracted and the skull was exposed. The left anterior frontal area was identified and a Teflon tipped cone (2-mm diameter) was placed 1 mm lateral to the midline, in the midcoronal plane. The head was held in place manually and a 75-g weight was dropped on the cone from a height of 18 cm, resulting in focal injury to the left hemisphere. […] In sham controls only anesthesia and skin incision were carried out.
Animals were awarded one point for failure to perform one item, so that scores can range from zero (healthy uninjured animals) to a maximum of 10, indicating severe neurological dysfunction, with failure to perform all tasks. The NSS obtained 1 h after trauma reflects the initial severity of injury and is inversely correlated with the neurological outcome. Animals were evaluated 5 h after CHI, and every two to three days until 20 days later. Each animal was assessed by an observer who was blinded to the treatment.
tPA has been reported to signal within the central nervous system by activating NMDA-R, a receptor for glutamine, implicated in neurotoxicity and exictotoxic neuronal cell death, through the cleavage of the NR-1 subunit of NMDA-R. The inventors therefore examined the effect of inhibiting tPA activation of NMDA-R on acute brain trauma, using a tPA mutated molecule devoid of serine protease catalytic activity. […] The effect of administering mutant tPA compositions was assessed using neurobehavioral evaluation based on the determination of a neurological severity score (NSS).

[3] = system: Blood Brain Barrier (BBB); experiment: Blood brain barrier permeability, Evans blue uptake into brain; assay type: in vivo, mice; settings: single i.p. injection 1 mg/kg, FIG. 3 and FIG. 4A
Method: The uptake of Evans blue dye into a brain tissue served as a marker to for quantifying disruption of the blood-brain barrier and increase in permeability of the BBB. […] Data was expressed as absorbance at 620 nm per gram of tissue. The mean±SEM of data from 8-9 animals/group are shown.
FIG. 4A. Mice were injected i.p. with 25 μl of saline or saline containing either WT-tPA or mtPA (1 mg/kg each) alone or together with PAI-1 derived 18 amino acids (aa) (as denoted by SEQ ID NO. 8) or 6 aa (as denoted by SEQ ID NO. 3) peptides (1 mg/kg each). Ten minutes later, the mice were given an i.v. injection of 2% Evans blue (EB) in saline. One hour after injection of dye, organs were cleared of blood by transcardiac perfusion. […] Extruded dye was quantified by absorbance at 620 nm. The figure presents a histogram illustration of the absorbance of EB at […] per gram of tissue. […]
To determine the effect of injection of tPA-S^481A on BBB function, anesthetized mice were injected i.p. with 25 μl of saline or saline containing tPA or tPA mutant (tPA-Ser^481Ala) (1 mg/kg each), followed by the intravenous injection of 2% Evans blue in saline. Evans blue was quantified by absorbance at 620 nm.
Plasminogen activator inhibitor-1 (PAI-1) is recognized as the inhibitor of tPA. […] Extruded dye was quantified by absorbance at 620 nm. Data are expressed in FIG. 4A as absorbance per gram of tissue.

[4] = system: CHI mice; experiment: Brain lesion size at day 20 post CHI; assay type: in vivo; settings: p<0.005 vs control animals
Method: After the last NSS evaluation (day 20 post CHI) the brains were then extracted and sectioned coronally into 1-mm segments. The sections were photographed and the area of each section was determined using the NIH computer image analysis program. Any missing area was estimated by overlaying the affected section with images from the contralateral side from the same animal. The volume of the missing portion of the brain was defined as the sum of the missing areas in all sections multiplied by their thickness expressed in cubic pixels. […] Taken together, the data collected indicate that the tPA-S481A has a neuroprotective effect.

[5] = system: CHI mice; experiment: Lactate and glutamate concentration in CSF after CHI; assay type: in vivo; settings: 100 μg/mice i.p. two hours after CHI
Method: CSF samples were taken from the cisterna magna in anaesthetized mice, using a microcapillary as described by others. Samples were immediately frozen at −70° C. until analysis by high-performance liquid chromatography (HPLC). Glutamate and lactate were derivatized using ortho-phthaldialdehyde/b-mercaptoethanol and the samples were injected onto the column. Peaks were detected using a fluorescence detector.
Therefore, groups of 8-9 animals were injected with mutant tPA, (100 μg/mice) in saline or saline alone intraperitoneally (i.p.) two hours after the head trauma and, the concentration of lactate and glutamate in the CSF have been measured.

[6] = system: Blood Brain Barrier (BBB) after CHI; experiment: Duration of BBB permeability after CHI, Evans blue extravasation; assay type: in vivo, mice; settings: mtPA i.p. 1, 2 or 3 hours after CHI; EB measured one hour after dye; FIG. 5
Method: Mice were treated with i.p. injection of mtPA 1, 2 or 3 hours after CHI. Five minutes after mtPA injection, the animals were given an IV injection of 2% Evans blue (EB) in saline. Extravasation of EB was measured one hour after injection of the dye. The figure presents a histogram illustration of the absorbance of EB at 620 nM per gram of tissue. The mean±SEM of data from 8-9 animals/group is shown. Abbreviations: Abs (Absorbance), T (time), h (hour), min. (minutes).
To examine the effect of tPA-S481A (mtPA) on BBB permeability after opening due to CHI, the tPA mutant was injected to 8-9 mice i.p. 1, 2 or 3 hours after CHI. Mice undergoing CHI alone served as controls for the indication of normal BBB behavior after head trauma. In both groups, the extravasation of EB was measured one hour after injection of the dye.

Row | Molecule | PA catalytic activity [1] | neurological severity score (NSS) ([2]; FIG. 1, 100 μg/mice i.p. two hours after head trauma, 10-point scale) | NSS at day 20 following CHI [2] | BBB permeability (Evans blue absorbance at 620 nm per gram of tissue) ([3]; 1 mg/kg) | Lesion size (volume of missing portion of the brain) [4] [pixels] | accumulation of lactate in CSF post-TBI ([5]; FIG. 6A) | accumulation of glutamate in CSF post-TBI ([5]; FIG. 6B) | duration of increased BBB permeability after CHI [6] | BBB permeability (Evans blue absorbance at 620 nm per gram of tissue) [3]
1 | B1 | lacks any PA catalytic activity | 0.43 | significantly improved initial (not shown) and long-term (FIG. 2) neurological outcome | increased BBB permeability similar to the results of wild type; also recorded: increases BBB permeability to the same extent as WT-tPA | 41525±10987 | clearly alleviates the accumulation | clearly alleviates the accumulation | markedly extended the duration of increased BBB permeability | –
2 | B2 | – | – | significantly higher than that of control mice | – | 167289±31456 | – | – | – | increased BBB permeability
